Test results from patent publication US20230295301A1 (SHANGHAI JUNSHI BIOSCIENCES, published 2023).
Changes are numbered by the printed parent chain.

T1: huCTLA-4 ECD (his-tag) (human, UniProt P16410 37-162)
T1 construct: also called HX1 hCTLA4 his; HX1 huCTLA4 his; not shown: his-tag
T1 sequence: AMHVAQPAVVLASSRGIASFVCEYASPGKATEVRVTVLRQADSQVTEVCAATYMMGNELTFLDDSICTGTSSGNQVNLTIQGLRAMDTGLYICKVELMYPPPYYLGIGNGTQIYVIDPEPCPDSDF

B1: HuJS007-107 (antibody, V domains shown)
VH: QVQLQESGPGLVKPSQTLSLTCAVSGYSITSGYYWNWIRQPPGKGLEWIGYIGYDGSNNYNPSLKNRVTMSVDTSKNQFSLKLSSVTAVDTAVYYCARDYYSGYFDSWGQGTTVTVSS
VL: DIVMTQSPDSLAVSLGERATINCKASQNVGTYVAWYQQKPGQPPKPLIYSTSYRYSGVPDRFSGSGSGTDFTLTISSLQAEDVAVYFCHQYDTYPLTFGQGTKLEIK
notes: 4B7 VH2-5 + 4B7VL8; constant regions not specified
B2: HuJS007-82 (antibody, V domains shown)
VH: B1 VH with T30S, P41F, I49M, N59Y, D99N
VL: B1 VL with Q100A, I106L
notes: 1A5 VH6 + 4B7VL1; constant regions not specified
B3: HuJS007-83 (antibody, V domains shown)
VH: B1 VH with T30S, P41F, I49M, N59Y, D99N
VL: DIQMTQSPSSLSASVGDRVTITCRASQNVGTYVAWYQQKPGKVPKPLIYSTSYRYSGVPSRFSGSGSGTDFTLTISSLQPEDVATYFCHQYDTYPLTFGAGTKLELK
notes: 1A5 VH6 + 4B7VL2; constant regions not specified
B4: huJS007-79 (antibody, human IgG1, kappa, V domains shown)
VH: B1 VH with T30S, N59Y, N66S, D99N
VL: EIVMTQSPATLSVSPGERATLSCRASQNVGTYVAWYQQKPGQAPRPLIYSTSYRYSGIPARFSGSGSGTEFTLTISSLQSEDFAVYYCHQYDTYPLTFGQGTKLEIKR
B5: HuJS007-86 (antibody, V domains shown)
VH: B1 VH with T30S, P41F, I49M, N59Y, D99N
VL: B3 VL with R24Q, V43A, L73F, V83I
notes: 1A5 VH6 + 4B7VL5; constant regions not specified
B6: HuJS007-85 (antibody, V domains shown)
VH: B1 VH with T30S, P41F, I49M, N59Y, D99N
VL: B3 VL with S10F, V43A, D70E, V83F
notes: 1A5 VH6 + 4B7VL4; constant regions not specified
B7: HuJS007-108 (antibody, V domains shown)
VH: B1 VH
VL: EIVMTQSPATLSVSPGERATLSCKASQNVGTYVAWYQQKPGQAPRPLIYSTSYRYSGIPARFSGSGSGTEFTLTISSLQSEDFAVYFCHQYDTYPLTFGQGTKLEIK
notes: 4B7 VH2-5 + 4B7VL9; constant regions not specified
B8: HuJS007-104 (antibody, V domains shown)
VH: B1 VH
VL: B3 VL with R24Q, V43A, L73F, V83I
notes: 4B7 VH2-5 + 4B7VL5; constant regions not specified
B9: HuJS007-58 (antibody, V domains shown)
VH: B1 VH with Q16E, A23T, N66S, M70I, V72R, V89A, V114L
VL: B3 VL with S10F, V43A, D70E, V83F
notes: 4B7 VH2-3 + 4B7VL4; constant regions not specified
B10: HuJS007-56 (antibody, V domains shown)
VH: B1 VH with Q16E, A23T, N66S, M70I, V72R, V89A, V114L
VL: B3 VL
notes: 4B7 VH2-3 + 4B7VL2; constant regions not specified
B11: HuJS007-66 (antibody, V domains shown)
VH: B1 VH with G26A, P41H, N66S, M70I, V72R, V89A, V114L
VL: B3 VL with V43A, V83F
notes: 4B7 VH2-4 + 4B7VL3; constant regions not specified
B12: HuJS007-57 (antibody, V domains shown)
VH: B1 VH with Q16E, A23T, N66S, M70I, V72R, V89A, V114L
VL: B3 VL with V43A, V83F
notes: 4B7 VH2-3 + 4B7VL3; constant regions not specified
B13: HuJS007-59 (antibody, V domains shown)
VH: B1 VH with Q16E, A23T, N66S, M70I, V72R, V89A, V114L
VL: B3 VL with R24Q, V43A, L73F, V83I
notes: 4B7 VH2-3 + 4B7VL5; constant regions not specified
B14: HuJS007-61 (antibody, V domains shown)
VH: B1 VH with Q16E, A23T, N66S, M70I, V72R, V89A, V114L
VL: B7 VL with K24R, F87Y
notes: 4B7 VH2-3 + 4B7VL7; constant regions not specified
B15: HuJS007-72 (antibody, V domains shown)
VH: B1 VH with G26A, P41H, N66S, M70I, V72R, V89A, V114L
VL: B7 VL
notes: 4B7 VH2-4 + 4B7VL9; constant regions not specified
B16: HuJS007-49 (antibody, V domains shown)
VH: B1 VH with A23T, G26A, P41H, N66S, M70I, V72R, V89A, V114L
VL: B3 VL with S10F, V43A, D70E, V83F
notes: 4B7 VH2-2 + 4B7VL4; constant regions not specified
B17: HuJS007-90 (antibody, V domains shown)
VH: B1 VH with T30S, P41F, I49M, N59Y, D99N
VL: B7 VL
notes: 1A5 VH6 + 4B7VL9; constant regions not specified
B18: HuJS007-103 (antibody, V domains shown)
VH: B1 VH
VL: B3 VL with S10F, V43A, D70E, V83F
notes: 4B7 VH2-5 + 4B7VL4; constant regions not specified
B19: HuJS007-77 (antibody, V domains shown)
VH: B1 VH with T30S, N59Y, N66S, D99N
VL: B3 VL with R24Q, V43A, L73F, V83I
notes: 1A5 VH5 + 4B7VL5; constant regions not specified
B20: HuJS007-102 (antibody, V domains shown)
VH: B1 VH
VL: B3 VL with V43A, V83F
notes: 4B7 VH2-5 + 4B7VL3; constant regions not specified
B21: HuJS007-75 (antibody, V domains shown)
VH: B1 VH with T30S, N59Y, N66S, D99N
VL: B3 VL with V43A, V83F
notes: 1A5 VH5 + 4B7VL3; constant regions not specified
B22: HuJS007-54 (antibody, V domains shown)
VH: B1 VH with A23T, G26A, P41H, N66S, M70I, V72R, V89A, V114L
VL: B7 VL
notes: 4B7 VH2-2 + 4B7VL9; constant regions not specified
B23: HuJS007-76 (antibody, V domains shown)
VH: B1 VH with T30S, N59Y, N66S, D99N
VL: B3 VL with S10F, V43A, D70E, V83F
notes: 1A5 VH5 + 4B7VL4; constant regions not specified
B24: HuJS007-81 (antibody, V domains shown)
VH: B1 VH with T30S, N59Y, N66S, D99N
VL: B7 VL
notes: 1A5 VH5 + 4B7VL9; constant regions not specified
B25: HuJS007-70 (antibody, V domains shown)
VH: B1 VH with G26A, P41H, N66S, M70I, V72R, V89A, V114L
VL: B7 VL with K24R, F87Y
notes: 4B7 VH2-4 + 4B7VL7; constant regions not specified
B26: HuJS007-74 (antibody, V domains shown)
VH: B1 VH with T30S, N59Y, N66S, D99N
VL: B3 VL
notes: 1A5 VH5 + 4B7VL2; constant regions not specified
B27: HuJS007-52 (antibody, V domains shown)
VH: B1 VH with A23T, G26A, P41H, N66S, M70I, V72R, V89A, V114L
VL: B7 VL with K24R, F87Y
notes: 4B7 VH2-2 + 4B7VL7; constant regions not specified
B28: HuJS007-101 (antibody, V domains shown)
VH: B1 VH
VL: B3 VL
notes: 4B7 VH2-5 + 4B7VL2; constant regions not specified
B29: HuJS007-84 (antibody, V domains shown)
VH: B1 VH with T30S, P41F, I49M, N59Y, D99N
VL: B3 VL with V43A, V83F
notes: 1A5 VH6 + 4B7VL3; constant regions not specified
B30: HuJS007-65 (antibody, V domains shown)
VH: B1 VH with G26A, P41H, N66S, M70I, V72R, V89A, V114L
VL: B3 VL
notes: 4B7 VH2-4 + 4B7VL2; constant regions not specified
B31: HuJS007-63 (antibody, V domains shown)
VH: B1 VH with Q16E, A23T, N66S, M70I, V72R, V89A, V114L
VL: B7 VL
notes: 4B7 VH2-3 + 4B7VL9; constant regions not specified
B32: HuJS007-68 (antibody, V domains shown)
VH: B1 VH with G26A, P41H, N66S, M70I, V72R, V89A, V114L
VL: B3 VL with R24Q, V43A, L73F, V83I
notes: 4B7 VH2-4 + 4B7VL5; constant regions not specified
B33: huJS007-106 (antibody, human IgG1, kappa, V domains shown)
VH: B1 VH
VL: B4 VL
B34: HuJS007-67 (antibody, V domains shown)
VH: B1 VH with G26A, P41H, N66S, M70I, V72R, V89A, V114L
VL: B3 VL with S10F, V43A, D70E, V83F
notes: 4B7 VH2-4 + 4B7VL4; constant regions not specified
B35: HuJS007-50 (antibody, V domains shown)
VH: B1 VH with A23T, G26A, P41H, N66S, M70I, V72R, V89A, V114L
VL: B3 VL with R24Q, V43A, L73F, V83I
notes: 4B7 VH2-2 + 4B7VL5; constant regions not specified

The binders below were run against T1, huCTLA-4 ECD (his-tag) (assay: ELISA, coated huCTLA-4 his).
Description: HX1 hCTLA4 his was diluted with PBS (Hyclone) to 1.0 μg/mL, and the dilution was added to a microplate at 100 μL/well. The plate was let stand in an incubator at 37° C. and coated for 90 min and then washed, and 2% BSA was added to the plate at 200 μL/well. The plate was incubated in an incubator at 37° C. for 90 min and then washed. The humanized anti-CTLA-4 antibodies in Table 4 and the control antibody (ipilimumab) were diluted with a diluent (2% BSA) to 1000 ng/mL. The dilution performed each time was not higher than 10-fold. Then, the humanized antibodies and the control antibody were serially diluted 2.5-fold on a sample dilution plate. All the humanized antibody solutions and the control antibody solution were added to a microplate at 100 μL/well. The plate was incubated in an incubator at 37° C. for 60 min and then washed. An HRP-conjugated goat anti-human antibody IgG (Fc specific) was diluted 5000-fold with 2% BSA, and the dilution was added to the microplate at 100 μL/well. The plate was incubated in an incubator at 37° C. for 60 min and then washed. The color development solution TMB was added at 100 μL/well, during which bubbles were avoided. Color development was allowed at 37° C. for 15 min in the dark and then terminated by adding 2 M hydrochloric acid solution at 100 μL/well, during which bubbles were avoided. Reading (wavelength: 450/620 nm) was done within 10 min using a microplate reader.

Binding result, binds:
B1
B2
B3
B4
B5
B6
B7
B8
B9
B10
B11
B12
B13
B14
B15
B16
B17
B18
B19
B20
B21
B22
B23
B24
B25
B26
B27
B28
B29
B30
B31
B32
B33
B34
B35
